T1: HMunc18c (His6-tagged full-length mouse Munc18c from a codon-optimised synthetic gene in pQE30) (mouse, UniProt Q60770 1-592)
T1 construct: Monomer by SEC-MALS; also called pQE30-His6-Munc18c; bacterially expressed Munc18c; source: E. coli BL21, co-expressed with GroEL/GroES, purified (IMAC PrepEase, SEC, MonoS IEC); not shown: His6, N-terminal, kept
T1 sequence (looked up): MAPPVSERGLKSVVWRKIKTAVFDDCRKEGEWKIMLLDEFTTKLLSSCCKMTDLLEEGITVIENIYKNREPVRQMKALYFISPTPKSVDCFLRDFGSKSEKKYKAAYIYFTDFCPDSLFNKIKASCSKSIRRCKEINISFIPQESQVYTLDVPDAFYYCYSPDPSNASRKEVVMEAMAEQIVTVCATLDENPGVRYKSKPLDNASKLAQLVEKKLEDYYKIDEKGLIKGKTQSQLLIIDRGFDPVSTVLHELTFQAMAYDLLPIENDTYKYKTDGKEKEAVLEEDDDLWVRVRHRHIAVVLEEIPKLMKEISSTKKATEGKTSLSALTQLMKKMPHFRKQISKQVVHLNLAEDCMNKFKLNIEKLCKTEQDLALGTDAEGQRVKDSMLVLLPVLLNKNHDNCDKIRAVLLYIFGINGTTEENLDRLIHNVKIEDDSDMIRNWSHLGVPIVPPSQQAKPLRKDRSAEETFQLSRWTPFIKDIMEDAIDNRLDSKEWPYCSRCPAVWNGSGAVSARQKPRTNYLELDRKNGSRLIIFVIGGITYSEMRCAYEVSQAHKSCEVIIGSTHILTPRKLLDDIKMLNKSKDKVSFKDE

B1: Sx4(1-275)-His (C-terminally His6-tagged Syntaxin4 C141S, residues 1-275) (domain or fragment, UniProt P70452 1-275, looked up)
chain: MRDRTHELRQGDNISDDEDEVRVALVVHSGAARLGSPDDEFFQKVQTIRQTMAKLESKVRELEKQQVTILATPLPEESMKQGLQNLREEIKQLGREVRAQLKAIEPQKEEADENYNSVNTRMKKTQHGVLSQQFVELINKSNSMQSEYREKNVERIRRQLKITNAGMVSDEELEQMLDSGQSEVFVSNILKDTQVTRQALNEISARHSEIQQLERSIRELHEIFTFLATEVEMQGEMINRIEKNILSSADYVERGQEHVKIALENQKKARKKKVM
notes: source: also in lysate for the co-purification; not shown: His6, C-terminal, kept

What was measured:
[1] = biological target: B1; assay: pull-down + SEC; lysates of un-tagged Munc18c and Sx4(1-275)-His mixed 3:1 by volume, captured on TALON beads, eluted, Superdex 200 in 25 mM Tris-HCl pH 7.5, 300 mM NaCl, 10% glycerol; peak fractions on SDS-PAGE; settings: partners not purified
[2] = biological target: T1, HMunc18c (His6-tagged full-length mouse …); assay: ITC; 298 K, iTC200; Sx4(1-275)-His 200-220 µM titrated into 20-30 µM HMunc18c in the cell; 25 mM HEPES pH 8, 200 mM NaCl, 10% glycerol, 2 mM β-ME; single site model; four replicates, mean ± SEM; settings: both partners purified

stoichiometry N [1]	Kd [2] [nM]	dH [2] [kcal/mol]	stoichiometry N [2]	Binder
1	–	–	–	Munc18c (un-tagged) (natural protein, mouse, UniProt Q60770 1-592, looked up, made from pQE30-HMunc18c by PCR that removes the His6 codons; A few vector-encoded residues may be left at the N-terminus (surmised); also called untagged Munc18c; un-tagged Munc18c) MAPPVSERGLKSVVWRKIKTAVFDDCRKEGEWKIMLLDEFTTKLLSSCCKMTDLLEEGITVIENIYKNREPVRQMKALYFISPTPKSVDCFLRDFGSKSEKKYKAAYIYFTDFCPDSLFNKIKASCSKSIRRCKEINISFIPQESQVYTLDVPDAFYYCYSPDPSNASRKEVVMEAMAEQIVTVCATLDENPGVRYKSKPLDNASKLAQLVEKKLEDYYKIDEKGLIKGKTQSQLLIIDRGFDPVSTVLHELTFQAMAYDLLPIENDTYKYKTDGKEKEAVLEEDDDLWVRVRHRHIAVVLEEIPKLMKEISSTKKATEGKTSLSALTQLMKKMPHFRKQISKQVVHLNLAEDCMNKFKLNIEKLCKTEQDLALGTDAEGQRVKDSMLVLLPVLLNKNHDNCDKIRAVLLYIFGINGTTEENLDRLIHNVKIEDDSDMIRNWSHLGVPIVPPSQQAKPLRKDRSAEETFQLSRWTPFIKDIMEDAIDNRLDSKEWPYCSRCPAVWNGSGAVSARQKPRTNYLELDRKNGSRLIIFVIGGITYSEMRCAYEVSQAHKSCEVIIGSTHILTPRKLLDDIKMLNKSKDKVSFKDE
–	104	-11	0.97	B1

Source: publication PMC3877047 (PLoS ONE, 2013)
